Reference: CN109666070A (UNIV TSINGHUA, dated 2019)

Legend:
[1] = biological target: T1, 生物素标记的RBD融合蛋白 (MERS-CoV, UniProt K9N5Q8 367-606); test: affinity measurement with biotin-labelled RBD fusion protein; method not stated
[2] = biological target: T1, 生物素标记的RBD融合蛋白; test: as above; remark: listed apart in the source

B1: 单克隆抗体MERS-4 (antibody, V domains shown)
VH: EVQLVESGGGLVQPGRSLRLSCAASGFTFSNYAMYWVRQAPGKGLEWVALISYDISTDYYADSVKGRFTISRDNSKNTIYLQMNNLRTEDTALYYCAGNDYWGQGTLVTVSS
VL: QSVLTQSPSASGTPGQRVTISCSGSSSNIGNNYVYWYQQLPGTAPKLLIYWNDQRPSGVPDRFSGSKSGTSASLAISGLRSEDEADYYCAAWDDSLSGAVFGGGTQLTVLG
[1]
  fold of Kd against that of MERS-4V2: 1.71 fold
[2]
  Ka: 8e+08 M⁻¹
  Kd: 1.25 nM
  koff: 0.00101 s⁻¹
  kon: 805000 M⁻¹ s⁻¹
